Results from publication doi:10.1101/2020.10.05.326595 (bioRxiv, 2020).
Substitutions are numbered along the chain they refer to. Numbers in names are those of the source.

Columns and labels:
crystal structure = molecular target: the molecule itself; assay: crystal structure
SEC-SAXS = molecular target: the molecule itself; assay: SEC-SAXS

B1: ZTL G46A:G80R (LOV domain construct, residues 29-165) (domain or fragment, UniProt Q94BT6 29-165, looked up)
chain: GGPIPYPVGNLLHTAPCAFVVTDAVEPDQPIIYVNTVFEMVTGYRAEEVLGRNCRFLQCRGPFAKRRHPLVDSMVVSEIRKCIDEGIEFQGELLNFRKDGSPLMNRLRLTPIYGDDDTITHIIGIQFFIETDIDLGP
B1: binds (crystal structure).

B2: ZTL G46S:G80R (LOV domain construct, residues 29-165) (domain or fragment, UniProt Q94BT6 29-165, looked up)
chain: B1 chain with A18S
In the case of B2, the “stoichiometry N” value (SEC-SAXS) is reported as 2.
